Measured values as given in the NTF2 design screens of Basanta et al. (2020).

Test: protease stability score; higher = more stable; yeast display proteolysis, trypsin and chymotrypsin;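 note: log10 excess protease needed over predicted unfolded state with 0 meaning unfolded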

| Sequence | protease stability score |
| --- | --- |
| DEEHAKRINENIKHGNWDELVKQFDENAKLVIGDKEYHGREEIKKAMDLFKKHADHFEIKSYDNQGEKMSATYVIQVNGKRATVKMRVTFQGDKVKRYELHATSEHNERILKEAIE | 1.12 |
| DEEKYKRLFRKVFEAAIKGDEEKVKKFGKPNVKYEYADKQYEGPEAMKHVVDLAKKVGAEVKTREQEVKGNTAKAKFQYKLGDRTVQTTVEVKYEGDKVKEARVKLTDEVKKILHQG | 0.065 |
| DEDQVRQANDNVIKAMKNGDPRKFKELFDPNARANYGDKEIHGMHTAMQRLVELLQQVDHIRIKDIKVENGHVHVDLVLEVNGRSVRFTITFRQSNGKVEELRMDPEDQKTLRR | -0.186 |
| DEREQIKKVLKRLEDIFKSGDEDKARELIDPNARMEYGDKELHGREKMARFIHELRKRIDHMEISLQDFKVKGDKLVFRAHLEAEVNGRKTSMTLRVVAHVEGDKIKIKEIQIK | 1.65 |
| DEDAHKRYEHIERVMEHGDESTLEQLMDPNARIQVGDKEVRGMNKWAKEVAEEIRQMEVRVDIKSVDVRGNRVRVEAKYTVNVNGRPKTATKEVVLDFENGRVSYVQVRFDPDRKKSIDQ | 0.443 |
| DEQDNEKARRIMDRGDPHELNRMADKDARVQVGDKTWHGRSQFEEFVKRFHDRVDHIEVKSVHVHGNEVRVDLVVVVNGHEARFIMVASVHNGHATSLSINVTDPRVEEVLRDIFD | 0.014 |
| DREDNEQVKKILETNDFHRLAEQADKDAKAVVGEKRYHGREHVREALLRLQKQADHLEIDSMDTSGDKVVMRAKLKINGKTMDVTFDVVVHNGRLQHFEMSATTEDDERIQRTANS | 0.743 |
| DEENLNRLDEFQQAVQTGDEKEAEELVDPNARVNVGDKQVNGMDKLRRTIHNKRRKMRVEIDHVNFRAKGNHVTARFDFHVNHNGTPRRTQMNVEARFKNGRIKSLRNESVS | 0.121 |
| DEEAQEVVEDMLRAIDKGDEDQIRRNVDKDAKVKVGNHELHGREQIAKFLSKERNEIEQSFQYESVTVDGDKIKFQFEMSRNVNGKPMRVSAQAEADAHNGKIRHFKVNVDTDVERRIDS | -0.165 |
| DSREEAKRFFTKMVEIFKTGDEDEAHEMADKNARVHVGDKTVRGREQYTRKMSKEVKQVDHAEYRIQDVEVQGEHIRITFVRRIDTNGRTNEQHLVMEAEKHNGRIYIKQIHES | -0.159 |
| EKEDLQQIARDMAKAVVSGDKEQMRRLADENARAQIGDKTLHGREKLSELIKRIRDRVDHLRLVDVRQDGDQIQVYVDLVVNGRKRRFTIEAEAHNGHIHSVTFDPRAKEFLDS | 1.79 |
| TEEDVLKVLETLMKAFFDGNPKEVKEMGKEDVKFQVGDQEVRGVDQMTKRVKEYRDQGIEFHLKRYKVEGDQVTAEAEVVMGDKKARVTAHYKADDGRVDETRVEMSDEAKKLFKHG | 0.432 |
| DEENVKQVERQFKQRDEGNEERVVDQADENASINIGDKRYHGMTDAAKKLVTRLKEIRFERRVVSVTMHNGKFDANYEQTQNTNGNPRTFRYKLVIHMKNGRVKSAHIQEDG | 0.062 |
| DEKEKLKQLARKFHKAMQTGDEDELKKNVDENVRADYGDRRYHGSEELAKWLREMKTKVDHLSMTIKDIRVKGDRAEIELEMTFDHNGRQETRQFTLQAQVHNGSLKIVQIRQS | 1.32 |
| DEDEDKRIQEVLEQNDFETLSKQADENAKVQYGDTEVHGRRKAYEYLRRLKRSIDHIHYHSIHVHNGRAKMTAEAHFNGRKAVFIVVLQFENGRIRMVVFRATDSRIKKIIKEALN | 0.988 |
| DERNQRNLEKMLKAQERGNPDLLEELVDKNVKIEVGDKSVHGREELHRQQDRRRKQATLRYDDLRMKVSGNKVRVDMKFQVNHDGKPEKATADATYEFDNGKLKHVSVRVRQ | -0.06 |
| DRTEILKHMFDDLAQVRRDGDPEKLNELMDEDVKARYGDKEYHGREDVARNIHRLASQADHVHIQLDRMSVDNGKARLEADVRIEHNGKVDEVRVEIRADVDNGRVNLREMIYR | 0.839 |
| DEEDQLKEIVERVHDVYKHGDEDKVRKMVDPNARARIGDKRIHGHDNFAKMIAEWKRKADSVSVHVEEFRVSGNKMTMTIRIKMDHNGRDTTFRYTAVATNTNGRVRVVRIQEK | 0.049 |

| Sequence | protease stability score |
| --- | --- |
| DHSQLEIVIEWVKALQEGDPDKAKKNMDKNVKLDIGDKRLEGRDEVRKEMETMKKSARFDLHIDSYNVHGDHAELRVTFRNDHNGRPKKDRNTIRATAHNGRITYLSVEHTG | 0.708 |
| DEEEIRHINRKLLKALQEGNEHEVAKLADKDASFDIGDKTYNGRHQVRNMIRKIRSQVDHMTVERMSISNGRIFVFIVFEINGRTRRTNQVVEVKNGRIKEVHVKET | 0.145 |
| DEEALKLLESLMEAVKTNNEERLKSLVDPNAHFQYGDKTLHGMEDWAKEVVRRMREIHVEWEWHTWSVHNGQIVVDVHARLEINGRPVHWKERIIVELENGKVKSMVFQISEEEKKHIDG | 1.6 |
| DEEVKSVAEQLMDVLQKGDPKQMSRLADKDVKINVGDKQYDGSEQLEKAVEDWKDEMRFQIEHVSISARGDKANVDFHVEFSFNGKPHSREVKVYIKVHNGRIKYLEYRVDPNEERKIKK | -0.267 |
| DETDLERWARTFIEVFQTGDENRFRKMVDPNARLNVGEKNVHGKEEMAKAAKKLRDKVDHMHVRDLQINPPTIEIHIDFHHNGQKRSQVYYVEMHNGRVTEIHVQTS | 1.05 |
| DEEHVDRVVKVLQHNDEEQFKRNAPPDARINIGDKQYRGREDAVEALSELWHRADHIRLHDITVRGNKIEMDMVFVVNGQHVRVVLDVEMRNGKVEQIDAHVTDEKDEENLQRAMD | 0.393 |
| DHTADRIIRNLMDALNQNDEDKAVKLMDENVRFRIGDKEYQGRERWKKLLQDWNKHASIRYTVDSMDRRGEKVHVKFELKVNINGNPVTVRVTVEFEIRNGKIKSAVYEMDPDDAKEVWS | 0.925 |
| DEELEHILKDILKAQKHNDEKRLEELFDPNVHFEVGDKRYNGMSRFAHELAQTQKEIKWRVQWQTWDVQGNKATMQAEAVFEVNGRPFRYTYQARVQVKNGKVKRHEIHVDPQQLRDQNS | -0.087 |
| DEHDAAKRAEEAVRRANSGDEKDALRLIDPNATVQVGDKNYHGREQVRRVVEELTERFDHIQFKHVSLQGNRVTARADATHNGRTEKMIFIVRAHNGRVKSWKIESS | -0.093 |
| DDTQRKRIEEYWTAVKTGDEDRLTELVDEDARVRIGDKEWSGREEIVRRIHDHVRQMRVSLEFKRITVNNGKVQLHAEVEYEHNGKPDTAKVELSMELTNGKFKSNDMQIHK | 0.607 |
| DEDANENIRKQLEWEEKGNPQQAKKQADPNAQFNIGDHTFNGMDEYMHWVKRELTHLRIEIKDVKFDVQGEKIEIDVRFVVDENGRPKEDRQDFDVTMHNGHIHNINVDKIS | -0.21 |
| DEERAKQLMEKAFKMIRNGNEEVVRKMLKPNGRYEYIDKKFEGEEAAKFVVQLVQKVGAEDKVKRKEVKGDTAKMDFDYHKGDKTVRTTAEVIYKGDKMEQARVELTDEVKKIVHQG | 0.046 |
| DEDVERIIKRFLTALTHNDPEQAAQNVDPNAQVRIGDKSVHGKDQLKNRIEEEVKEMRVDIKHMSVDVKGNKASIHLHFVIQTNGKPDEKTAVMEVVVQGDKIHELELHDTK | 0.725 |
| DEDSDRSVAQEFFEAVQRGNKSDVHRLADKDAKAEVGEKDIDGREELTKWVRELKRRVDHLDVKSITNKPGRVHFDAEYHFNGTTEKMVIVVQVHNGKVKEVTVQRG | 0.908 |
| DDDAQRIAEDIQNALRKGDPERLNHLVDKNVKFVIGDKTIHGREDAAKQWHTMNRQMRIEVEMKHWDQQGNEVTIVARFVYEHNGRPETKRITRTITFHNGRAKEVVQKDDS | 0.09 |
| DEKKLQELLKKAFEAALNGDEDKLRKLLAPNVKYKYGDTEREGEDAVRLVMQIVKHIGVEVKKQEEEVKGGRMRAVFRYDNGSQTVQTTAEVQYEGDKVKEVRVEITDEIKKVMQRG | 1.17 |
| DEEDEEVVRQWLEAYKTGDPDQLKRNADPNARIQVGDKVLHGMEDAKTELKEQRDHQRFRFHMDSVSVHGNRVEITMKADVDVNGRPIHFTNSFVFTLHNGKIRHIDLQVPEELKHQMTK | -0.125 |
| DEDRYKKLMDKAFKLIMSGDEETMIKMLKPDVQYEYIDTKYEGEQVAKVIVRIVQKVGAEVRIKRKEHKGDKARADFDYHNGDQTVRTTAEVRYEGDKLKEARVKMTDEVKKVVQRG | 0.028 |
